Laboratory results: patent US20250281611A1 (BIOSCEPTRE AUST, published 2025)

T1: CD19 (UniProt P15391 20-556, limits assumed)
T1 construct: whole, on cells; also called CD19 on JeKo-1
T1 sequence (looked up): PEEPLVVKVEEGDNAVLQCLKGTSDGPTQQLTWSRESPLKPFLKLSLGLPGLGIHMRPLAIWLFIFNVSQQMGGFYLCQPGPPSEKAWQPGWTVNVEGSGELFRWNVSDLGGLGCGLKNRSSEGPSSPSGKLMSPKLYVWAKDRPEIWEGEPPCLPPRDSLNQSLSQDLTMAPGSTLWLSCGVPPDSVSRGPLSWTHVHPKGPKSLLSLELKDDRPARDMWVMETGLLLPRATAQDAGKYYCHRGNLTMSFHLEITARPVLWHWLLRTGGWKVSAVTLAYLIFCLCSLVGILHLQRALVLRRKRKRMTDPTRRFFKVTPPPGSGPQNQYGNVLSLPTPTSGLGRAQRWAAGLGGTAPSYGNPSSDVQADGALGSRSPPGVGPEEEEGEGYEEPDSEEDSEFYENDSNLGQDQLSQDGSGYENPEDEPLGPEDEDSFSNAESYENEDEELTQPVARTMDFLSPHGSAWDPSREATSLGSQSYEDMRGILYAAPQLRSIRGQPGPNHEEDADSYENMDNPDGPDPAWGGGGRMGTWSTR


Key:
nfP2X7 CAR 1 [1] = target: T2, nfP2X7 CAR 1; assay: flow cytometry, anti-His-FITC, MFI on EGFR+ (CAR+) over EGFR- (CAR-) T cells
T2 construct: CAR-positive cells gated by the co-expressed EGFR marker; also called nfP2X7 targeted CAR; nfP2X7 CAR on EGFR+ T cells
In short: (§1)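 CAR T cells incubated with BRiDGE variants at saturating concentrations; bound BRiDGE detected with anti-His-FITC by flow cytometry. EGFR marks CAR expression. Value is median fluorescence intensity on EGFR+ (CAR+) cells divided by that on EGFR− (CAR−) cells.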

nfP2X7 CAR 1 [2] = target: T2, nfP2X7 CAR 1; assay: flow cytometry, anti-His-FITC, MFI on EGFR+ (CAR+) T cells over background 0.44
In short: as §1

CD19 [3] = target: T1, CD19; assay: flow cytometry, JeKo-1 cells, bridge at saturating conc., BIL03s-AF647 detection
Protocol: (§2) JeKo-1 cells were incubated with different CD19 BRiDGE variants at saturating concentrations. […] The MFI intensity correlates with the number of secondary bound antibodies bound to the CD19 BRiDGE variants that are only detected if they are bound to the JeKo-1 cells. MFI: median fluorescence intensity. BLitz: Bio-Layer interferometry (BLI) technology using HIS-tag identification tips. […] The higher the MFIR, the stronger the binding.

CD19 [4] = target: T1, CD19; assay: flow cytometry, JeKo-1 cells, BIL03s-AF647 detection, MFI over no-bridge control
Protocol: as §2

CD19 [5] = target: T1, CD19; assay: flow cytometry, JeKo-1 cells, anti-His-FITC detection, MFI over no-bridge control
Protocol: as §2

CD19 [6] = target: T1, CD19; assay: flow cytometry, JeKo-1 cells, bridge at saturating conc., anti-His-FITC detection
Protocol: as §2

nfP2X7 CAR 1 [7] = target: T2, nfP2X7 CAR 1; assay: flow cytometry, nfP2X7 CAR 1 T cells (EGFR+ gate), anti-His-FITC detection

| HisTag MFI Ratio of EGFR+/EGFR- (nfP2X7 CAR 1 [1]) | HisTag MFI Ratio (background 0.44) (nfP2X7 CAR 1 [2]) | MFI Bil03 AF647 (CD19 [3]) | MFIR BIL03 AF647 (CD19 [4]) | MFIR HisTag FITC (CD19 [5]) | MFI HisTag FITC (CD19 [6]) | MFI HisTag FITC in EGFR+ Population (nfP2X7 CAR 1 [7]) | Binder |
| --- | --- | --- | --- | --- | --- | --- | --- |
| 4.2 | 5.1 | 8.78 | 19.1 | 3.09 | 2.38 | 2.24 | CD19 BRIDGE variant B28 (Fab) heavy: EVQLVESGGGLVKPGGSLKLSCAASGYTFTSYVMHWVRQAPGKGLEWIGYINPYNDGTKYNEKFQGRVTISSDKSISTAYMELSSLRSEDTAMYYCARGTYYYGTRVFDYWGQGTLVTVSSASTKGPSVFPLAPSSKSTSGGTAALGCLVKDYFPEPVTVSWNSGALTSGVHTFPAVLQSSGLYSLSSVVTVPSSSLGTQTYICNVNHKPSNTKVDKKVEPKSCHHHHHH light: DFPGHNYTTRNILPGLNITSTFHKTSGSGKEPKSSDKTHTGSDIVMTQSPATLSLSPGERATLSCRSSKSLQNVNGNTYLYWFQQKPGQSPQLLIYRMSNLNSGVPDRFSGSGSGTEFTLTISSLEPEDFAVYYCMQHLEYPITFGAGTKLEIKRTVAAPSVFIFPPSDEQLKSGTASVVCLLNNFYPREAKVQWKVDNALQSGNSQESVTEQDSKDSTYSLSSTLTLSKADYEKHKVYACEVTHQGLSSPVTKSFNRGEC |
| 3.9 | 6.1 | 5.83 | 12.7 | 2.77 | 2.13 | 2.67 | CD19 BRIDGE variant B31 (Fab) heavy: EVQLVESGGGLVKPGGSLKLSCAASGYTFTSYVMHWVRQAPGKGLEWIGYINPYNDGTKYNEKFQGRVTISSDKSISTAYMELSSLRSEDTAMYYCARGTYYYGTRVFDYWGQGTLVTVSSASTKGPSVFPLAPSSKSTSGGTAALGCLVKDYFPEPVTVSWNSGALTSGVHTFPAVLQSSGLYSLSSVVTVPSSSLGTQTYICNVNHKPSNTKVDKKVEPKSCHHHHHH light: DFPGHNYTTRNILPGLNITSEPKSSDKTHTGGGGSDIVMTQSPATLSLSPGERATLSCRSSKSLQNVNGNTYLYWFQQKPGQSPQLLIYRMSNLNSGVPDRFSGSGSGTEFTLTISSLEPEDFAVYYCMQHLEYPITFGAGTKLEIKRTVAAPSVFIFPPSDEQLKSGTASVVCLLNNFYPREAKVQWKVDNALQSGNSQESVTEQDSKDSTYSLSSTLTLSKADYEKHKVYACEVTHQGLSSPVTKSFNRGEC |
| 4.2 | 5.1 | 7.44 | 16.2 | 3.03 | 2.33 | 2.25 | CD19 BRIDGE variant B29 (Fab) heavy: EVQLVESGGGLVKPGGSLKLSCAASGYTFTSYVMHWVRQAPGKGLEWIGYINPYNDGTKYNEKFQGRVTISSDKSISTAYMELSSLRSEDTAMYYCARGTYYYGTRVFDYWGQGTLVTVSSASTKGPSVFPLAPSSKSTSGGTAALGCLVKDYFPEPVTVSWNSGALTSGVHTFPAVLQSSGLYSLSSVVTVPSSSLGTQTYICNVNHKPSNTKVDKKVEPKSCHHHHHH light: DFPGHNYTTRNILPGLNITSTFHKTSGSGKGSEPKSSDKTHTGSDIVMTQSPATLSLSPGERATLSCRSSKSLQNVNGNTYLYWFQQKPGQSPQLLIYRMSNLNSGVPDRFSGSGSGTEFTLTISSLEPEDFAVYYCMQHLEYPITFGAGTKLEIKRTVAAPSVFIFPPSDEQLKSGTASVVCLLNNFYPREAKVQWKVDNALQSGNSQESVTEQDSKDSTYSLSSTLTLSKADYEKHKVYACEVTHQGLSSPVTKSFNRGEC |
| 3.9 | 4.8 | 8.45 | 18.4 | 3.21 | 2.47 | 2.13 | CD19 BRIDGE variant B24 (Fab) heavy: EVQLVESGGGLVKPGGSLKLSCAASGYTFTSYVMHWVRQAPGKGLEWIGYINPYNDGTKYNEKFQGRVTISSDKSISTAYMELSSLRSEDTAMYYCARGTYYYGTRVFDYWGQGTLVTVSSASTKGPSVFPLAPSSKSTSGGTAALGCLVKDYFPEPVTVSWNSGALTSGVHTFPAVLQSSGLYSLSSVVTVPSSSLGTQTYICNVNHKPSNTKVDKKVEPKSCHHHHHH light: DFPGHNYTTRNILPGLNITSTFHKTSGSGKGGGGSEPKSSDKTHTDIVMTQSPATLSLSPGERATLSCRSSKSLQNVNGNTYLYWFQQKPGQSPQLLIYRMSNLNSGVPDRFSGSGSGTEFTLTISSLEPEDFAVYYCMQHLEYPITFGAGTKLEIKRTVAAPSVFIFPPSDEQLKSGTASVVCLLNNFYPREAKVQWKVDNALQSGNSQESVTEQDSKDSTYSLSSTLTLSKADYEKHKVYACEVTHQGLSSPVTKSFNRGEC |
| 4.3 | 4.8 | 7.48 | 16.3 | 3.05 | 2.35 | 2.12 | CD19 BRIDGE variant B30 (Fab) heavy: EVQLVESGGGLVKPGGSLKLSCAASGYTFTSYVMHWVRQAPGKGLEWIGYINPYNDGTKYNEKFQGRVTISSDKSISTAYMELSSLRSEDTAMYYCARGTYYYGTRVFDYWGQGTLVTVSSASTKGPSVFPLAPSSKSTSGGTAALGCLVKDYFPEPVTVSWNSGALTSGVHTFPAVLQSSGLYSLSSVVTVPSSSLGTQTYICNVNHKPSNTKVDKKVEPKSCHHHHHH light: DFPGHNYTTRNILPGLNITSTFHKTSGSGKGGGGSEPKSSDKTHTGSDIVMTQSPATLSLSPGERATLSCRSSKSLQNVNGNTYLYWFQQKPGQSPQLLIYRMSNLNSGVPDRFSGSGSGTEFTLTISSLEPEDFAVYYCMQHLEYPITFGAGTKLEIKRTVAAPSVFIFPPSDEQLKSGTASVVCLLNNFYPREAKVQWKVDNALQSGNSQESVTEQDSKDSTYSLSSTLTLSKADYEKHKVYACEVTHQGLSSPVTKSFNRGEC |
| 4.1 | 5.3 | 9.6 | 20.9 | 3.25 | 2.5 | 2.35 | CD19 BRIDGE variant B27 (Fab) heavy: EVQLVESGGGLVKPGGSLKLSCAASGYTFTSYVMHWVRQAPGKGLEWIGYINPYNDGTKYNEKFQGRVTISSDKSISTAYMELSSLRSEDTAMYYCARGTYYYGTRVFDYWGQGTLVTVSSASTKGPSVFPLAPSSKSTSGGTAALGCLVKDYFPEPVTVSWNSGALTSGVHTFPAVLQSSGLYSLSSVVTVPSSSLGTQTYICNVNHKPSNTKVDKKVEPKSCHHHHHH light: DFPGHNYTTRNILPGLNITSGGGGSEPKSSDKTHTGSDIVMTQSPATLSLSPGERATLSCRSSKSLQNVNGNTYLYWFQQKPGQSPQLLIYRMSNLNSGVPDRFSGSGSGTEFTLTISSLEPEDFAVYYCMQHLEYPITFGAGTKLEIKRTVAAPSVFIFPPSDEQLKSGTASVVCLLNNFYPREAKVQWKVDNALQSGNSQESVTEQDSKDSTYSLSSTLTLSKADYEKHKVYACEVTHQGLSSPVTKSFNRGEC |
| 4.2 | 4.9 | 5.53 | 12 | 3.06 | 2.36 | 2.17 | CD19 BRIDGE variant B26 (Fab, V domains shown) VH: EVQLVESGGGLVKPGGSLKLSCAASGYTFTSYVMHWVRQAPGKGLEWIGYINPYNDGTKYNEKFQGRVTISSDKSISTAYMELSSLRSEDTAMYYCARGTYYYGTRVFDYWGQGTLVTVSS VL: DIVMTQSPATLSLSPGERATLSCRSSKSLQNVNGNTYLYWFQQKPGQSPQLLIYRMSNLNSGVPDRFSGSGSGTEFTLTISSLEPEDFAVYYCMQHLEYPITFGAGTKLEIKR |
